The target in assay [1] is T1, human Fen1 fused to the transcriptional activation domain of Gal4 (Gal4ACT) (human, UniProt P39748 1-380).
T1 construct: range 1-380; Yeast two hybrid prey; also called DNase IV; rad2hs
Put plainly: yeast two hybrid. An excerpt: The 89 Amino Acids From the C-terminal Region of Fen1 Bind PCNA in an Interaction Trap Proteins that interact physically with human PCNA were screened using a two hybrid interaction trap system that detects protein-protein interactions by reconstitution of a functional Gal4 transcriptional activator in the yeast *Saccharomyces cerevisiae*. A plasmid expressing human PCNA in fusion with the DNA binding domain of Gal4 (Gal4AS) was used to screen plasmids expressing fusion constructs of molecules encoded by fragments from a human cDNA library with the transcriptional activation domain of Gal4 (Gal4ACT). […] The minimal Fen1 fragment isolated in our screen (FIG. 1) encoded the 89 amino acids from the C-terminal region of the protein (full length 380 aa, (Murray et al., 1994)), therefore localising the PCNA binding site to these residues.

For assay [2], the target named is T2, human PCNA (proliferating cell nuclear antigen) (human, UniProt P12004 1-261).
T2 construct: also called recombinant human PCNA
Put plainly: precipitation assay. Here is the method: (§1) Twenty amino acid peptides with 15 amino acid overlaps were synthesized (Chiron Mimotopes, Australia) across the 89 amino acids from the C-terminal region of Fen1 identified in the two hybrid screen as the PCNA binding site on Fen1. These peptides were linked via residues SGSG (SEQ ID NO:3) at the amino acid terminus to biotin. 2.7 µg of each peptide was incubated with 10 µl streptavidin agarose beads (Sigma) in phosphate buffered saline (PBS) for 1 hour at room temperature (r.t.) then beads were washed extensively in PBS and recovered each time by centrifugation at 11,600 g. HeLa cell lysate was added to the washed beads to a final protein concentration of 1 mg/ml and incubated with the beads on ice for 1 hour. Beads were extensively washed in PBS with 220 mM NaCl, then bound proteins removed by boiling for 8 minutes in SDS loading buffer with 0.2 M DTT. Proteins were separated on 10% SDS-PAGE then electrophoretically transferred to nitrocellulose. Blots were blocked then incubated for 1 hour r.t. with PC 10 hybridoma supernatant (Waseem & Lane, 1990) diluted 1:5 in DMEM with 10% FCS. After washing, secondary HRP-conjugated anti-mouse IgG serum at 1:1000 in 2% non-fat milk-PBS-0.2% Tween was added for 1 hour at r.t. Bound antibody was visualised using the ECL system according to the manufacturer's instructions (Amersham plc.)
To map precisely the residues of Fen1 to which PCNA binds, a series of biotinylated 20 amino acids peptides (with 15 amino acid overlaps) were synthesized representing the region of Fen1 found to interact with PCNA in the two hybrid screen (FIG. 1). Fen1 peptides (bound to streptavidin agarose beads) were incubated with human HeLa cell extracts, then beads were precipitated and bound protein analysed on immunoblots probed with monoclonal anti-PCNA antibody PC10 (Waseen & Lane, 1990).

The target in assay [3] is T2, human PCNA (proliferating cell nuclear …). Put plainly: peptide on streptavidin agarose beads, precipitation from HeLa extract, PC10 immunoblot. How it is done:
as §1, with “These” for “Twenty amino acid peptides with 15 amino acid overlaps were synthesized (Chiron Mimotopes, Australia) across the 89 amino acids from the C-terminal region of Fen1 identified in the two hybrid screen as the PCNA binding site on Fen1. These”
The region of human Fen1 recognised by PCNA in the precipitation assay contains a motif highly conserved in the Fen1 family. We examined whether human PCNA could bind to his motif in the yeast homologues of Fen1, *S. pombe* rad2 and *S. pombe* RAD27/YKL510. […]
(In general: A western blot detects proteins with antibodies after separation by electrophoresis.)

Ends that are not written are not given here. * marks the point of attachment. Biotin = O=C1N[C@H]2[C@H](CS[C@H]2CCCCC(=O)*)N1

The source of these data is US6613878 (CYCLACEL, dated 2003).

T2 sequence (P12004 whole entry): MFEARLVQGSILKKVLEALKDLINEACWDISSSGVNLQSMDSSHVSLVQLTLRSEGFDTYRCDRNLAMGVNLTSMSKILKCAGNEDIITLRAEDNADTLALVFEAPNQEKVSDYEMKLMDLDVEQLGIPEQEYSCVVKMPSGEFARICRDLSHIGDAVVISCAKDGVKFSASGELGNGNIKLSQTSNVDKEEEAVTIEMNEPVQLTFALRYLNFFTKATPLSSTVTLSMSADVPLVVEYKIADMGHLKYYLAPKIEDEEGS
T1 sequence (P39748 whole entry, the tested form may be a part): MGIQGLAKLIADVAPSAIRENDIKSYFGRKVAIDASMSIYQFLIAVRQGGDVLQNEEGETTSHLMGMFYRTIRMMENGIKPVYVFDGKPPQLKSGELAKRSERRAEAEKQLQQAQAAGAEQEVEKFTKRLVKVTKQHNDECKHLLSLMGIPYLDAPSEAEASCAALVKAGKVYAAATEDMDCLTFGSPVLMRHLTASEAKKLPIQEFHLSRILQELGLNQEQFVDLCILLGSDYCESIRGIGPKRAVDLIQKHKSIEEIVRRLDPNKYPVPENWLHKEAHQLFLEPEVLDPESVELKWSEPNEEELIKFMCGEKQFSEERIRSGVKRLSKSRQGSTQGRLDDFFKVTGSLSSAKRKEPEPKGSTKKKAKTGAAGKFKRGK

B1: PCNA from Drosophila melanogaster (other, UniProt P17917 1-260, looked up)
chain: MFEARLGQATILKKILDAIKDLLNEATFDCSDSGIQLQAMDNSHVSLVSLTLRSDGFDKFRCDRNLSMGMNLGSMAKILKCANNEDNVTMKAQDNADTVTIMFESANQEKVSDYEMKLMNLDQEHLGIPETDFSCVVRMPAMEFARICRDLAQFSESVVICCTKEGVKFSASGDVGTANIKLAQTGSVDKEEEAVIIEMQEPVTLTFACRYLNAFTKATPLSTQVQLSMCADVPLVVEYAIKDLGHIRYYLAPKIEDNET
notes: Two hybrid construct; the Gal4 fusion is not described for this protein; also called D. melanogaster PCNA
With B1, the binding result in assay [1] was “binds”.

B2: Fen1 peptide 84 (Fen1PBP, Fen1-PCNA binding peptide) (peptide)
peptide: Biotin-SGSGKRLSKSRQGSTQGRLDDFFK
notes: also called FenPBP
Turning to B2, the binding result in assay [2] was “binds”.

B3: PCNA from Schizosaccharomyces pombe (other, UniProt Q03392 1-260, looked up)
chain: MLEARFQQAALLKKLLDAIKELVTDANFDCNDNGISLQAMDSSHVALVSMLIKSDGFEPYRCDRNIALGINLNALSKVLRCAQNEDLVTLKAEDTPEVLNLVFESEKNDRISDYDVKLMDIDQEHLGIPDIEYDATITMPAAEFQRITRDLLTLSDSVTINASKEGVRFSCKGDIGNGSTTLKQHTDLSDQDQSIEISLTQAVTLTFSLKYLAQFTKATPLATRVTLSMSNDVPLLVEYKMESGFLRFYLAPKIGEEDEE
notes: Two hybrid construct; the Gal4 fusion is not described for this protein; also called S. pombe PCNA; pcn1 product
On to B3, for which the binding result in assay [1] is “binds”.

B4: Fen1 peptide 85 (peptide)
peptide: Biotin-SGSGSRQGSTQGRLDDFFKVTGSL
B4: the binding result in assay [2] was “binds”.

B5: Fen1 peptide 86 (peptide)
peptide: Biotin-SGSGTQGRLDDFFKVTGSLSSAKR
Take B5: the binding result in assay [2] was “binds”.

B6: peptide 92, 20 amino acid peptide of the conserved box of S. pombe rad2 (peptide)
peptide: ASKTIPQGRLDSFFKPVPSS
modifications: not fully specified (N-terminus); also: biotinylated, position not given here
notes: also called rad2 peptide
Consider B6, for which the binding result in assay [2] was “binds”.

B7: peptide 93, 20 amino acid peptide of the conserved box of S. cerevisiae RAD27/YKL510 (peptide)
peptide: GLKSGIQGRLDGFFQVVPKT
modifications: not fully specified (N-terminus); also: biotinylated, position not given here
notes: also called RAD27 peptide
Turning to B7, the binding result in assay [3] is recorded as “binds”.
